The supplement of paper PMC12455559

assay: purified protein yield per well (BCA); higher = higher soluble expression
In short: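 Candidate enzymes were made in 2 mL autoinduction cultures of E. coli C41(DE3) with 100 µg/mL kanamycin, at 37 °C for 2 h and then 18 °C for 40 h, and purified with Ni-charged magnetic beads and SUMO protease cleavage. The Pierce Rapid Gold BCA kit gave purified protein yield per well. Values lower than 25 ug (0.1 mg/mL) are below the detection threshold.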

Row | Sequence | purified protein yield per well [µg]
1 | LKADGPYAVSSQTVKGNGFGAGTVYSPNTPGKYAVVAVCPGFVSAESSMTAISKRLATHGFVVVTIATNTLFDFPSSRATQLLAALKTVTALTTGPVAGKMDTSRQGVSGWSMGGGGTLEAAGATPGLVSAVAYAPWDTSTTKMKVNKVPVAIIGGSADTVASVSAHSQKFYDAIPATTPKMLPVINGADHFFPTKASEPASYHNI [ESM072] | < 25
2 | LQMQSLINIGPLQISEINESMGLRNGTDYNGATIYYPINQNNLSSIVLVPGFMNTELTIQNWGPFFASHGIITMTIGTNSLTDTHVQRRDALFDAIISLKQENQRIASPLFGKLDTSSIAVGGFSKGGGGAQLLAKFDPSLKAVVALYPWLENVTASDLEHTVPLIIISGQLDAIAPPFLHADIQYNLTPMTTKKLKYEVAFASHDAISGPYAGNGEVGARVLSWLNTFLVTDSCYCPLLLEQPITSSSYTTNIVCSNLFTNIYESNKSYSKEIIEIRDLYGRKVKFSNSRILIYIYNDGSYEKKITL [TEP016] | < 25
3 | LTLDDLKKDGPYAISAQTIPASGFGKGTVYSPNTPGKYALVAVCPGFVSAESSITEISKRLATHGFVVVTIGTKTLLDFPSSRASQLLAALKAASAVTTGPAAGKIDVTRQVVAGWSMGGGGTLEAAAATPGLKAAVAYAPWNLSSSKYKSITVPSAIIGGTADSVAPVSSHSQPFYNAIPATTPKLLGVIQGADHFFPNKAAEPASYTNIAWVKRFADGDTQYGVFLRGQDAAWASFVSTGPF [ESM117] | < 25
4 | LTLDDLKKDGPYAVSSQTIPGSGFGKGTIYSPNAAGKYALVAVVPGFVSAESSMTEISKRLATHGFVVVTIGTKTLLDFPSSRASQLLAALKAASAVTTGPVAGKIDVTRQVVSGWSMGGGGTLEAAASTPGLKAAVAYAPWNLSSTKYKAITVPSAIIGGTADTVASVSAHSQPFYNAIPATTRKLLGVIQGADHFFPNKAVDPASYTNIAWVKRFADGNTAYAPFLAGQDAAWASFVSTGPF [ESM087] | < 25
5 | LWLGLGGVLSLIGFVVIGVETNSRTDYDVARGTQLLAALDYLTQQSPVRNRVDPNRLGVIGHSMGGGGVVYATEHRPALKAAVALAPFSPSQNMSTDTVPTMVMAGQNDTVVTPSYLSGLYATMPAATQSDFLQIAGADHVYYTHPNSVEMRILIPWIKTFLDNDTRYTQVICPGLAL [TEP112] | < 25
6 | MAAGGLVAAQAAGAQAAPAQAAAANPYERGPAPTEASIEAARGSYAVSQTTVSSLSVSGFGGGTVYYPTSTSDGTFGAVVISPGYTAYQSSIAWLGPRLASQGFVVFTIDTLTTLDQPDSRGRQLLAALDYLTQSSSVRTRIDSSRLGVMGHSMGGGGTLEAAKSRPSLQAAIPLTGWNLDKTWPEIKTPTLIVGADGDTIAPVATHSEPFYESLPSSLDKAYLELNGATHFTPNSSNTTIAKYSISWLKRFIDNDTRYEQFLCPLPRPSLTIDEYRGNCPHTS [TEP052] | < 25
7 | MASITNPGPYSVSLLIEGVDDIRNGPDYDGATIYYPSNGVPPYAGIAIIPGYCGVETDIENWGPFYASHGIIAITLGTNNPCADWPAVRALALLDAIETIKSENTREGSPLNGKVDVNSFAVSGWSMGGGGAELAASIDPSLKAVVGLCPWLDLNGFETSDLIHDVPVLIFTGQNDDIAGSAEYGYMHYTNTPNSTDKLYFEIENEGHEAANAPNMAGGEKGIYALSWLTI [TEP051] | < 25
8 | MASVAAQYGPFATAQITVPPGNGFNGGFIYYPTDTSHTYGAVAIVPGYTALFANEEAWMGPRLASFGFVVIGVETNNRNDYDTARGTQLLAALDYLTNSSAVRDRVDRNRLSVIGHSMGGGGALYAATQRPSLKAAIGLAPFKPSGNLASDNVPTMIIGGINDTTVTPSYLDGLYPTLPASTPGAYIQLANADHLYFTRPNDIELRSQIEWLKIFVDNDTRYTQFLCPSIKDTTGIVRSSVKCSTIPSGGSTPPSSPSVPPSSPPSGPQRILGSQSGRCVDVPNATHDNGTRVQLYDCNGQANQQWTYTSSKQLTVYGNVCLDAAGSGNGSAVQIYSCNGQPNQQWNVNANGTITGVQSGRCLDVWGTGNGQQFQLWDCNGQANQRFGLS [ESM074] | < 25
9 | MCHISAPVPPRAPGCPQFAHWLEVRAVLGSNGAFPTSGRTGADPSGARGTGGRWRRGVAALSTAAVLGALTVVGAVQSASGADNPYQRGPDPTASYVSGSRGSFATAQVSVPAGNGFGGGVIYHPTDTTQGTFGAIAVVPGYTATWAAEGAWMGHWLASFGFVVIGIDTNGREDWDTARGTQLLAALDYLTQRSSVRDRVDASRTAVMGHSMGGGGAMYAALQRPSLKTTVGLAPFSPSQNLTNLRVPAMLLSGQNDTTTTPSSIVNLYNGIPAATEKAYLELSGVGHSFPTSSNPTMMRNVIPWLKIFIDSDTRYTQFLCPLSNSNGIRSYQNTCPLVPSSVPTTSSTTTSTSTTTTTTTTTTTTTTTSVPVGACSASFRTTNTWPGGYQGEVTVTAGSSAVNGWTVQWTLDSGQSISQVWNGTLSVSGSAVSVRNVSYNGSLPPNASATFGFIGGGSPSTSPFTCTSP [ESM077] | < 25
10 | MEAIVRRGGTRGQVTGILVAVLAMVVALAGAVLAARPALAQPRDTAPGNPYQRGPDPTVAMIEASAGPFATASTSVPAGHGFNGGTVYYPTDTSLGTWGALAIVPGYSALFANEEAWMGPWLASFGFVVIGVETTTRTDSADARGTELLAALNYLTTQSPVRDRVDPNRLSVLGHSAGGAGAMLAAERQPTLKAAVGLAPGSPVGNLSLAADTVPTMVIGGQNDAVVTPSYLSGLYATMPASTQSDFAQVAGADHVYYTHPNNVEMKLLIPWLKTFLDNDTRYTPFLCPAPPDPSSISLYTPKCPYVPGGSAPGGGNTGALHAVGAAKCLAAPSTGAPGAQVTIGTCGGQAGQIWTHTAAAQLTVTLGGATLCLDASGQGSSPGTKVIVWSCNGQVNQQWNLNADGTVTGAQSGLCLDVTGASTADGAPVELWSCNGGGNQQWHLG [TEP068] | < 25
11 | MFSASTFAYNPAPPPPSPTPTPTPGPLPGQPNDGFQRGPNPSVSLLEAERGPFSVRNARVSSSVRGFGGGTIYYPTGTTGTMGAIVVIPGYVSPESSIAWWGPKMASHGFVVMTIATNRTTDQPSSRATQINAALDYLISQNSTSGSPVRNMIDTDRLGVMGWSMGGGGTLRVASQNRLKAAIPLAPYDTISFRNVDAPTLIFGCESDTVAPVRNHASPFYNQIPAGTDKAFVELNGGSHTCANGGNQYNDVLSRLGVSWMKRHLDNDTRYSQFLCGPNHTSDRDISEYRGNCPY [DP070] | < 25
12 | MGFGGGTIYYPTTSGQYGAIAVCPGFTGTSSSISWFARRLATHGFVTIAMNTTTTLDYPSSRATQLAAALRYLLNSSSSTIRSRIRTADRGVAGHSMGGGGTLIASANDSTLRAGIPMTPWNTYTSFSSVRVPQMIFGADGDTIAPYATHARPFYNSISLAEKAYALLNGAGHFTPNSTDQRIRRYGVAFAKRFVDGDTRYNPFLCGAEHTAYATSSRFQTYLSNCPY [ESM185] | < 25
13 | MGPWLASFGFVVLGIETNSRTDGADARATQLLAGLDYLTRTSPVRSRVDPNRLSVMGHSAGGAGTLLAALRRPSLRTAVGLAPGTPGNNLNMSTTQVPTLLLSGQNDGTVTPSYVQGIYNTLPAGVEHAWAELAGNDHLSFTRSNPTEMRLLIPWLKIFLDYDTRYTQFLCPLSNSTGVSRYSSTCPLVPPGGPTVPPTTTPPPTTPPPTTPPTTPPPTTPPPTTPPPGTACTATYRTIGSWSGGFQGEVTVTAGSAAVDGWTARWQLASGQGISQVWNGTLSTSGTTVTVRNADYNGTLAPGTSTTFGFLGTGTPNSPSPTCTSP [ESM008] | < 25
14 | MGSNPYQRGPDPTTSSLEASRGPFSVASFTVSRPSGYGAGTVYYPTNAGGKVGAIAIVPGYTARQSSINWWGPRLASHGFVVITIDTNSTLDQPSSRSSQQMAALRQVVSLSGTSSSPIYNKVDTSRLGVMGWSMGGGGSLISARNNPSLKAAAPQAPWNSSKNFSSVTVPTLIIACENDTIAPVNSHALPFYNSMSRNPKQYLEINGGSHSCANSGNSNQALIGKKGVAWMKRFMDNDTRYSSFACSNPNSSSVSDFRTENCSAS [TEP184] | < 25
15 | MGVRYPEQGGFGGVAAVPGYNSAEKAVAWLGPRLASQGFVVITIATKGRSDQPTARGKQLLAALDYLTAKSPAAVRQRLDPQRLAVTGHSMGGGGSLYAAWTRPGLKAAVPLAPWHSIKNWSGITVPTLVQGGTSDDVAPVGTHAEPIYRSLTGARERAYAESAGADHGTFVREDPLIGALTVAWLKRFVDDDARYEQFLCPAPADPGLTEYRHSCPSS [TEP121] | < 25
16 | MHPSFPESEDPAPAARHSAAPLSRDCAHPPARRSTHRTAHRIAHRTARPDRSRRRIRGVLAAATAALLAVAGLTLIPNASAAENPFERGPAPSASSLAAARGPFATSQVTVSSRDASGFGGGTIYFPTSGDEGTFGAVAVAPGFTASRSSMAWLGPRLASQGFIVFNIDTITRSDQPASRGRQLLAALDFLVERSPIRDRVDPDRLAVMGHSMGGGGALEAAESRPTLRAAIPLTPWNLNKNWSRVQVPTMVIGAERDTIASVRFHSEPFFDSLPSDLDKAYLELNNASHFAPNIPNATISSFSVAWLKRFVDDDTRYEQFLCPPPRPAGEISEYQDTCARAS [TEP191] | < 25
17 | MIYYPTDTSQGTFGAIAISPGYTALFSVELAWMGPRLASQGFVVIGIETNDRNDFDTARGTQLLAALDYLTGQSSVRSRVDPNRLAVAGHSMGGGGAFSAALRRPALKAAVGFTPFSPSQNLTNMQVPALLYSGQYDTVTTPSSVSNLYNGLPSTTEGAYIEAAGLDHSFPTRPNTLLMRTMIPWVKIFLDNDLRYTQFLCPLMDSSGVLQYRNTCPLVPPGLPSPSPTTAPPTTAPPTTAPPTTAPPTTAPPTTAPPTTAPPTTAPPSGACTATYQTIGSWPGGFQGEVTVRAGNSAINGWTVGWSLGSGQSITQIWNGTLSTSGSSVSVRNVSYNGSLPAAGTATFGFLGSGSPSTPSTVTCTSP [ESM001] | < 25
18 | MKSSGSAFRDPSGTVPTGRPAGRSWRYALALVAATTTLVALTVAGGTQQATGADNPYQRGPDPTRASVSANRGTFATAQVSVPAGNGFGGGVIYYPTDTSQGRFGAIAVVPGYTATWAAEGAWMGHWLASFGFVVIGIDTNSRNDWDNARGTQLLAALDYLTQRSSVRDRVDASRTSVMGHSMGGGGAANASLQRPTLKTAIGLAPASFSQNLTTTKVPTMLLAGQYDGTVTPSSVLNLYNGIPAGVEKAYLELTGAGHGFPTSNNPTMMRTIIPWFKIFVDSDTRYTQFLCPLADTNGIRTYQSTCPLVPSTPPTSTSTTTTTTGVPTGSTYVGQQSGRCLDVTGQSQTNGAKAQLWDCNGQSNQKWTLTSAAELRVYGGKCLDLPSNSAAGTQAQIWDCNGQSNQKWTHGTDGSIRHTQTGLCLDANGQGTANGTQVNSWNCNGQTNQKWTRR [TEP008] | < 25
